Reference: patent publication US20080176263

Tests used:
[1] = system: RH substrate
[2] = system: Anaspec, Inc.'s FRET peptide XV (QXL520-y-Abu-Pro-Gln-Gly-Leu-Dab(5-FAM)-Ala-Lys-NH)
[3] = system: TNO211 peptide (DABCYL-GABA-Pro-Gln-Gly-Leu-Glu(EDANS)-Ala-Lys-NH2)
[4] = system: T1, Peptide #15 (Biotin-aAbu-Pro-Gln-Gly-Leu-Lys(5FAM)-Ala-Lys-NH2)
T1 sequence: PQGLKAK

[5] = system: Substrate AA

Sequence of Recombinant active pure MMP-9 from Calbiochem (Cat# PF024; 83 kDa form) (chain, as listed by the source): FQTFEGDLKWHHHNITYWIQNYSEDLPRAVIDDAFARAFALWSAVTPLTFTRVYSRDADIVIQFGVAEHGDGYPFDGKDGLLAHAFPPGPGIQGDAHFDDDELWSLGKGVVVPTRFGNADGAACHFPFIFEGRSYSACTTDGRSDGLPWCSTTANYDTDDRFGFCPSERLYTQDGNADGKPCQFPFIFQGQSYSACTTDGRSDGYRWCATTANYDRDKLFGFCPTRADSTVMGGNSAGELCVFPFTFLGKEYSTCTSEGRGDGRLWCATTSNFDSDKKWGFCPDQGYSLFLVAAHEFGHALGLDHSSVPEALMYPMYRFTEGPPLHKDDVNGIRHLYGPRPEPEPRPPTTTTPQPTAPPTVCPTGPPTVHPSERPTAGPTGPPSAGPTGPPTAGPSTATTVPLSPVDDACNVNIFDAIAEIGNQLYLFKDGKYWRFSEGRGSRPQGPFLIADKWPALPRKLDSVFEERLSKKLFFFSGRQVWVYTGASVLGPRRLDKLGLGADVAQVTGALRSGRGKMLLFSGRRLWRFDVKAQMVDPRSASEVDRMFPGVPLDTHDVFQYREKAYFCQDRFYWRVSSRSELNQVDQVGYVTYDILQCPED
Sequence of MMP-9 (chain, as listed by the source): as above

Substance: dispase
- cleavage of the dye-labelled immobilized substrate (color generation) [1]: none of the enzyme preparations were successful in cleaving the RH substrate

Substance: elastase
- cleavage of the dye-labelled immobilized substrate (color generation) [1]: none of the enzyme preparations were successful in cleaving the RH substrate

Substance: Recombinant active pure MMP-9 from Calbiochem (Cat# PF024; 83 kDa form)
- time to a visible fluorescent signal from cleavage of the FRET peptide [2]: capable of generating a signal within 10 minutes for pure MMP-9 activity
- visually detectable fluorescent signal in MMP-9 spiked fetal bovine serum [2]: the spiked FBS generated as slightly detectable signal by 10 min with the 5-FAM-based peptide and an easily detectable signal by 30 min

Substance: pronase
- time to completion of the cleavage reaction at 1 ug/ml protease [3]: the pronase reaction reached completion within 13 minutes
- visual detection limit of protease by fluorescence of cleaved substrate [3]: 125 ng pronase was detected within 10 minutes
- fluorescence left after streptavidin agarose removal of uncleaved biotinylated peptide [4]: there was enough of a difference between the negative control and the other samples to stop at this point
- cleavage of the dye-labelled immobilized substrate (color generation) [1]: none of the enzyme preparations were successful in cleaving the RH substrate
- visible color from cleavage of the dye-labelled immobilized substrate [5]: AA substrate reacted with pronase and proteinase K did produce a visible color within 2.5 h at 37 °C Pronase generated the most noticeable color change

Substance: clostridial collagenase
- protease activity (fluorescence from cleavage of substrate TNO211), relative to pronase [3]: 2±1%

Substance: MMP-9
- protease activity (fluorescence from cleavage of substrate TNO211), relative to pronase [3]: 28±3%
- substrate specificity in the fluorogenic cleavage assay [3]: The substrate exhibited greater specificity for MMP-9 within the initial 30 minutes of the assay

Substance: trypsin
- cleavage of the dye-labelled immobilized substrate (color generation) [1]: none of the enzyme preparations were successful in cleaving the RH substrate
